The source of these data is patent US20110052551A1, “CARDIAC MYOCYTE MORPHOGENIC COMPOSITIONS AND METHODS OF USE THEREFOR” (priority 2008, published 2011).

Entries after “also recorded” stand apart in the source; their conditions may differ.

Holding throughout (type): cell-based, mice
Test [1] deals with unfractionated BMMNCs. Description: Immunocytochemistry for Oct-4-positive BMMNCs. Particulars: 21 days, 150 ng/ml. As for the experimental part: Additionally, to assess the influence of Wnt3a on cellular differentiation, unfractionated BMMNCs were cultured separately in the presence of 150 ng/ml of recombinant Wnt3a protein under the same conditions used to culture unfractionated BMMNCs, using pcDNA3/293 cells containing the empty vector as controls (see FIG. 9A).
Immunocytochemistry. Cells were fixed on glass cover-slides with 4% paraformaldehyde for 20 minutes at 4° C. Cells were washed four times and permeabilized with BD PERM/WASH™ (containing saponin; BD Biosciences, San Jose, Calif., United States of America). For immunostaining, separate preparations of BD PERM/WASH™ containing primary monoclonal antibodies against either cardiac troponin T (cTnT; Santa Cruz Biotechnology, Santa Cruz, Calif., United States of America) or cardiac myosin heavy chain (cMyHC; Novus Biologicals, Inc., Littleton, Colo., United States of America) or connexin-43 or Oct-4 were prepared; all primary antibodies, save cMyHC, were purchased from Santa Cruz Biotechnology. Each preparation also contained primary monoclonal antibodies against nestin, glial fibrillary acidic protein (GFAP), CD11B, Gr-1 (myeloid lineage markers), the CD45 epitope, myogenin […]

For test [2], the system named is unfractionated BMMNCs. The test is described as follows: qRT-PCR of pluripotency markers Oct-4 and Nanog in cultured BMMNCs. The conditions noted are these: BMMNCs cultured 21 days, 150 ng/ml; normalized to 18S rRNA. From the text: Isolation and culture of unfractionated BM-derived mononuclear cells (BMMNCs). For each experiment, two mice were euthanized by CO2 inhalation followed by cervical dislocation and their femurs and tibias were removed and placed in Dulbecco's Modified Eagle Medium/F12 (DMEM/F12; Invitrogen Corp.). The bones were stripped of soft tissue with fine forceps exposing the long bone shafts. The BM was flushed into and suspended in fresh DMEM/F12 using a 23-gauge needle and 5-ml syringe. The BM was further dispersed by repeated passage through the 23-gauge needle for 10 minutes.
After filtering cells through a 70 μm nylon mesh filter, the MNC fraction (BMMNCs) were separated using FICOLL-PAQUE™ (Sigma Aldrich, St. Louis, Mo., United States of America) density-gradient centrifugation as described in (Zuba-Surma et al., 2006). See also FIG. 9A. The viability of unfractionated BMMNCs was assessed by Trypan blue (Sigma Aldrich) staining. Approximately 15×10^6 unfractionated BMMNCs were obtained from each mouse. Adult unfractionated BMMNCs were seeded (n=5×10^5 cells/well) in 6-well tissue culture plates (lower chamber of a 6-well tissue culture TRANSWELL® system; Corning Inc. Life Sciences, Lowell, Mass., United States of America) on fibronectin (FN)-coated glass coverslips (Fischer Scientific). […]
Assessment of mRNA expression by quantitative real-time RT-PCR (qRT-PCR). […]

Test [3] deals with unfractionated BMMNCs. Description: Assessment of cardiac differentiation by immunocytochemistry (cMyHC, cTnT). The conditions noted are these: 21 days of culture. From the text:
Induction of differentiation. To assess the influence of ectopic expression of Wnt11 on BMMNC differentiation, Wnt11 conditioned medium (Wnt11-CM) was generated. Specifically, unfractionated BMMNCs were co-cultured with Wnt11-expressing HEK-293 cells (Wnt11/293-2; designated as Wnt11-CM), under the same conditions used to culture BMMNCs. In order to achieve strict separation of cell types during co-culture experiments, BMMNC and Wnt11/293 cells were separated into upper and lower chambers of a TRANSWELL® co-culture system. Wnt11/293-2 or pcDNA3/293 (empty vector) cells (the controls in this experiment) were cultured in the upper chamber on the polyester (PET) membrane of a 24 mm TRANSWELL® insert, and unfractionated BMMNCs were cultured in the lower chamber as described above.
Moreover, to eliminate the possibility of cell fusion or cell-cell contact as a requirement for Wnt11-mediated effects, a membrane pore size of 0.4 μm was chosen, thus preventing egression of Wnt11/293-2 cells to the lower compartment that contained BMMNCs. Of note, TRANSWELL® inserts were maintained separately without cells until day 10 of BMMNC attachment. […]
Assessment of cardiac differentiation. For quantitative assessment of cardiomyocytic differentiation, an average of 2400 cells/plate were counted. Multiple fields from all 4 quarters of the plate were systematically evaluated. […]

For test [4], the system named is unfractionated BMMNCs. The test is described as follows: Immunocytochemistry for pan-hematopoietic marker CD45. The conditions noted are these: after 21 days of culture; percent of total cells. How it is done: Immunocytochemistry. Cells were fixed on glass cover-slides with 4% paraformaldehyde for 20 minutes at 4° C. Cells were washed four times and permeabilized with BD PERM/WASH™ (containing saponin; BD Biosciences, San Jose, Calif., United States of America). For immunostaining, separate preparations of BD PERM/WASH™ containing primary monoclonal antibodies against either cardiac troponin T (cTnT; Santa Cruz Biotechnology, Santa Cruz, Calif., United States of America) or cardiac myosin heavy chain (cMyHC; Novus Biologicals, Inc., Littleton, Colo., United States of America) or connexin-43 or Oct-4 were prepared; all primary antibodies, save cMyHC, were purchased from Santa Cruz Biotechnology. Each preparation also contained primary monoclonal antibodies against nestin, glial fibrillary acidic protein (GFAP), CD11B, Gr-1 (myeloid lineage markers), the CD45 epitope, myogenin
These preparations were then applied separately (i.e., mixtures either with cTnT or with cMyHC) or, for co-immunostaining experiments, in combinations to cells for 16 hours at 4° C. and 37° C. for the final hour. […]

B1: Wnt3a: recombinant Wnt3a protein, canonical Wnt, used at 150 ng/ml (protein, UniProt P56704 19-352, looked up)
Protein Wnt-3a: SYPIWWSLAVGPQYSSLGSQPILCASIPGLVPKQLRFCRNYVEIMPSVAEGIKIGIQECQHQFRGRRWNCTTVHDSLAIFGPVLDKATRESAFVHAIASAGVAFAVTRSCAEGTAAICGCSSRHQGSPGKGWKWGGCSEDIEFGGMVSREFADARENRPDARSAMNRHNNEAGRQAIASHMHLKCKCHGLSGSCEVKTCWWSQPDFRAIGDFLKDKYDSASEMVVEKHRESRGWVETLRPRYTYFKVPTERDLVYYEASPNFCEPNPETGSFGTRDRTCNVSSHGIDGCDLLCCGRGHNARAERRREKCRCVFHWCCYVSCQECTRVYDVHTCK
Regarding B1, the “number of Oct-4-positive BMMNCs compared with untreated control” value in the test with unfractionated BMMNCs [1] was “marked increase; also recorded: a much greater number”. Also, in the test with unfractionated BMMNCs [2], the “increase in Nanog mRNA expression compared with baseline” value was determined as 158±0.6 fold and the “increase in Oct-4 mRNA expression compared with baseline” value was 177±0.4 fold. The “expression of cardiac-specific contractile proteins (cTnT, cMyHC)” value with unfractionated BMMNCs [3] is “not observed”. In the test on unfractionated BMMNCs [4], the “cells positive for CD45” value is listed as 69.9±2.9%.
